Target: T1, recombinant human TIGIT protein (Acrobiosystems) (human, UniProt Q495A1 22-141)
T1 construct: Bought recombinant protein; NP_776160.2; UniProt Q495A1-1
T1 sequence: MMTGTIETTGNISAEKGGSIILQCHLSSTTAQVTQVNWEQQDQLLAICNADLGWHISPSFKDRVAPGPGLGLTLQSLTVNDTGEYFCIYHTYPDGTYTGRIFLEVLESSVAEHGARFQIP
Assay: ELISA, plate coated with recombinant human TIGIT at 1 ug/ml, serial 1:3 dilutions from 61.097 nM, detection with anti-mouse/human IgG-HRP, OD 450 nm
Experimental: An ELISA plate was coated with recombinant human TIGIT protein (Acrobiosystems, China) at a concentration of 1 μg/ml dissolved in PBS (Phosphate-Buffered Saline) and incubated overnight at 4° C. The plate was blocked with blocking buffer (3% (v/v) skim milk in PBS) for 1 hour, and serially diluted anti-TIGIT monoclonal antibody (7A6) and the fusion protein ([7A6]-[TL-2]-[IL-15]; denoted as ‘7A615TL-2’) (starting concentration: 61.097 nM; serial 1:3 dilutions) were added to the coated plate. After incubation, anti-mouse/human IgG-HRP antibody (Abcam: 1:10000 dilution) was added to each well. The plate was developed with TMB solution and stopped with 1N HCl. The OD value was read at 450 nm using the GloMax® Explorer Fully Loaded.

- EC50 (read off the curve): ~2 nM
B1: anti-TIGIT monoclonal antibody 7A6 (7A6_VH3/Vk5) (antibody, human IgG1, kappa, V domains shown)
VH: QVQLQESGPGLVKPSQTLSLTCTVTGYSITSDYAWNWIRQPPGKGLEWMGYISYSGSARYNPSLKSRVTISRDTSKNQFSLKLSSVTAEDTATYYCARKGYPAYFAYWGQGTLVTVSS
VL: DIQMTQSPSSLSASVGDRVSITCKASQDVSTAVAWYQQKPGQAPRLLIYSASYRYTGVPDRFSGSGSGTDFTLTISSLQPEDFATYYCQHHYSTPYTFGQGTKLEIKR
notes: also called parent antibody; TIGIT mAb

Source: patent US20260015417A1 (MEDIMABBIO, published 2026)
